Experimental findings from US7657385B2 are described below.

The test deals with CD81-LEL (large extracellular loop of human CD81, amino acids 113-201) (human). The experiment in a line: X-ray crystal structure; dimer in the asymmetric unit.

Turning to “CD81-LEL (large extracellular loop of human CD81, amino acids 113-201) (receptor)”, the subunit interface was 986 Å^2.
